For the test, the target named is Exportin-1 (XPO1), endogenous (UniProt O14980). Kind of test: co-IP (GFP pulldown) and western blot, semi-quantification. As to conditions: stable U2OS cell lines, parent: est. 0.60, read off a plot.

For 6 substances, response (band intensity relative to WT -ETO) results are on record in PMC11551748.

Sequence of UniProt O14980 (O14980 whole entry): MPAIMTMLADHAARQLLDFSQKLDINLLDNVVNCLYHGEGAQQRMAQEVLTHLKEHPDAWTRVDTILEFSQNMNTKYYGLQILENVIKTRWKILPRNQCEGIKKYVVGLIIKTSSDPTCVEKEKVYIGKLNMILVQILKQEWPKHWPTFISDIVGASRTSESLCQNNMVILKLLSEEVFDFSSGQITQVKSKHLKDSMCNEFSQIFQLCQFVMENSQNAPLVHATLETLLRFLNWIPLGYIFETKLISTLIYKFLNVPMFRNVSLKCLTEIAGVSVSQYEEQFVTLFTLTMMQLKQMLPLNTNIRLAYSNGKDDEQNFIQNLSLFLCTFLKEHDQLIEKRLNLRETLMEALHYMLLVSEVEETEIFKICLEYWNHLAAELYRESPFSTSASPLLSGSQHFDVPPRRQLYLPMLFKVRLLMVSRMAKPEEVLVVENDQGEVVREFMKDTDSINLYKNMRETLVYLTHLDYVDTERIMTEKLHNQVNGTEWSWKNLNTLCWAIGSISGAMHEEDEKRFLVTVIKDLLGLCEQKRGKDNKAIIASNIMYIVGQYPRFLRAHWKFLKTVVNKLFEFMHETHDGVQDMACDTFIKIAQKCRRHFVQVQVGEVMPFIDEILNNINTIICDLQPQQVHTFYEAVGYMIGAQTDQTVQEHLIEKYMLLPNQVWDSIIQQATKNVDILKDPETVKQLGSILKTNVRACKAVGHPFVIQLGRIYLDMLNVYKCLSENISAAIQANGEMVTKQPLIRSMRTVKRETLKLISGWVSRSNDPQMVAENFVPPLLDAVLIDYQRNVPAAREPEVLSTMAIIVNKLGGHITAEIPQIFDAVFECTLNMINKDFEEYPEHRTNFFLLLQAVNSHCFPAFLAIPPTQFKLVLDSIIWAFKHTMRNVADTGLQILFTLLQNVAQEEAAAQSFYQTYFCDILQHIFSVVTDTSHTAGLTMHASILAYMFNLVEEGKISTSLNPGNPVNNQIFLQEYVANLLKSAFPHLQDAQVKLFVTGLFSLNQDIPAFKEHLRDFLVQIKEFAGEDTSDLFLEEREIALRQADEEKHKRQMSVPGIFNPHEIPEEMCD

Regarding “TIRR-GFP WT (lentivirus-integrated, U2OS) (from UniProt Q9BRJ7) NES2”, the response (band intensity relative to WT -ETO) came to 0.3.

As to “TIRR-GFP WT (lentivirus-integrated, U2OS) (from UniProt Q9BRJ7) NES3”, the response (band intensity relative to WT -ETO) was 3.2. The same measure for “TIRR-GFP WT (lentivirus-integrated, U2OS) (from UniProt Q9BRJ7) NES4”: 1.3; for “TIRR-GFP WT (lentivirus-integrated, U2OS) (from UniProt Q9BRJ7) NES1”: 2.1. In the case of “TIRR-GFP WT (lentivirus-integrated, U2OS) (from UniProt Q9BRJ7) RBM” it was 0.9.

For the substance “TIRR-GFP WT (lentivirus-integrated, U2OS) (from UniProt Q9BRJ7) K10E”, the response (band intensity relative to WT -ETO) was determined as 0.27.
